Measured values reported in patent US20020142347A1, “Biosensor” (BIOSENSOR ApS, priority 2000, published 2002).
Like-named read-outs stand apart in the source and are kept apart here.

Legend:
[1] = Fluorescence response of the Phe-49_Cys49 badan derivative of bovine ACBP to ligands; format: binding; conditions: badan group exposed to the environment
Procedure: Reference is made to FIG. 2. and FIG. 3. which depict the emission spectra of FACI24 and FACI53 titrated with increasing concentrations of CoA, C4-, C8-, C12-, C16- and C20-CoA esters. The addition of ligand and measurement of emission of FACI24 and FACI53 was performed as described in example 2. The increased addition of ligand to the mutated and modified proteins caused a proportional spectral change. The normal physiological binding profile was confirmed by direct binding studies using isoelectrical focusing as predicted in FIG. 4. […] The results clearly indicate that fluorescence emission at 470 nm may provide a measure for the concentration of free unbound long-chain(>C12)-acyl-CoA ester.
The two sensors presented herein together act as high sensitivity sensors in the chain length range from C8-CoA to C20-CoA. […]
Quantitative determination of binding affinities (KD) were performed by isothermal titration micro calorimetry as previously described (Faergeman et. al., 1996; Biochemistry 35, 14118-14126). Qualitative evaluation of relative binding affinities were determined by isoelectrical focusing using the Pharmacia Fast Gel system according to the prescriptions given by the manufacture. […] The fluorescence emission was measured on a SPEX FLOUROLOG (Industries Inc, Edison N.J., USA) with excitation at 400 nm and emission scan from 400 nm to 550 nm. […]

[2] = Fluorescence titration emission spectra of FACI-46 (negative control); format: binding
Excerpt: The strategy behind the design of the mutants was based on the tertiary structure of the bovine ACBP/acyl-CoA complex. Both Met-24 and Ala-53 interact directly with the acyl-chain of the acyl-CoA ligand, interacting with the omega-methyl group of long acyl-chains. Positioning of an environmentally sensitive group in one of these positions would therefore be expected to create ligand sensitive probes. Met-46 which is located outside the hydrophobic binding pocket in the loop between helix 2 and 3 was chosen to serve as a negative control which should not be sensitive to ligand binding.
Fluorescence titration emission spectra from 415 nm to 550 nm (excitation at 400 nm) were performed for CoA, C4:0-, C8:0-, C12:0-, C16:0-, and C20:0-CoA with all four mutated and badan modified proteins.

Row | Molecule | Fluorescence response to addition of ligands [1] | Emission spectra changes of FACI-46 with ligands (words) [2] | Emission spectra changes of FACI-46 with ligands (words) ([2]; listed as FACI46)
1 | Phe-49_Cys49 badan derivative of bovine ACBP: Phe49 to Cys mutant of bovine ACBP labelled with badan, badan group exposed to the environment (conjugate, UniProt P07107 2-87, looked up, variant F49C, badan label, Phe49 to Cys mutant of bovine ACBP labelled with badan, badan group exposed to the environment) Acyl-CoA-binding protein: SQAEFDKAAEEVKHLKTKPADEEMLFIYSHYKQATVGDINTERPGMLDCKGKAKWDAWNELKGTSKEDAMKAYIDKVEELKKKYGI | did not respond to addition of any of the ligands | – | –
2 | FACI-46: badan derivative of M46C-bovine ACBP, negative control (conjugate, UniProt P07107 2-87, looked up, variant M46C, badan label, badan derivative of M46C-bovine ACBP, negative control) Acyl-CoA-binding protein: SQAEFDKAAEEVKHLKTKPADEEMLFIYSHYKQATVGDINTERPGCLDFKGKAKWDAWNELKGTSKEDAMKAYIDKVEELKKKYGI | – | did not show any emission spectra changes with any of the ligands | did not show changes in emission spectra with any of the tested ligands
